Laboratory results: patent publication US20200031919A1 (SUZHOU KANOVA BIOPHARMACEUTICAL, published 2020)

Legend:
[1] = biological target: T1, human IL-17B (human, UniProt Q9UHF5 21-180); experiment: ELISA, cytokine coated at 2 µg/ml
T1 construct: Commercial recombinant protein
T1 sequence (looked up): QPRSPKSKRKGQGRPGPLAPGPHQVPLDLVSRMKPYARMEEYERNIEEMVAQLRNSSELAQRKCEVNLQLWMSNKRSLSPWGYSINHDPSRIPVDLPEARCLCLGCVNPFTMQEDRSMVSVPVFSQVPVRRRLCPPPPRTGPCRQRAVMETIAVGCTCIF
Procedure: MaxiSorp 96-well plates (NUNC # 449824, www.thermofisher.com) were coated with 2 μg/ml human IL-17A (Cell Signaling #89285F, www.cellsignal.com), human IL-17F (Cell Signaling #8906LC, www.cellsignal.com), human IL-17B (Peprotech #200-28, www.peprotech.com), human IL-17C (R&D systems #1234-IL-025/CF, www.rndsystems.com), human IL-17D ((Peprotech #200-27, www.peprotech.com), human IL-17E (R&D systems #1258-IL-025/CF, www.rndsystems.com) in 1× PBS (50 μl/well) respectively. Plates were incubated at 4° C. overnight. Coating solution was removed and plates were washed once with 200 μl/well PBST (1× PBS with 0.05% tween-20). Then 200 μl/well blocking buffer (1× PBS with 0.05% tween-20, 3% BSA) was added and incubated at room temperature for 1 hour. Blocking buffer was removed and plates were washed three times with 200 μl/well PBST (1× PBS with 0.05% tween-20). The anti-IL17A/F antibody, hIgG VH1-1/VL5, was diluted to […], 0.000102, 0.000034 μg/ml by 1× PBS and added to the plates (50 μl/well). Plates were incubated at room temperature for 2 hours. Antibodies in the wells were removed and plates were washed three times with 200 μl/well PBST (1× PBS with 0.05% tween-20). Goat anti-human IgG(H&L)—HRP secondary antibody (Jackson Immuno Research #109-035-088, www.jacksonimmuno.com) was diluted 1:5000 in 1× PBS and added to each well (50 μl/well). Plates were incubated at room temperature for 1 hour. Secondary antibody was removed and plates were washed seven times with 200 μl/well PBST (1× PBS with 0.05% tween-20). 50 μl/well TMB (eBioscience # 85-00-4201-56, www.ebioscience.com) was added and plates were incubated at room temperature for several minutes. Then 50 μl/well 2N H₂SO₄ was added to stop the reaction. Plates were read at 450 nm. […] So, the hIgG VH1-1/VL5 antibody has binding specificity to human IL-17A and 17F and has no cross-reactivity to other IL-17 family members.

[2] = biological target: T2, human IL-17F (human, UniProt Q96PD4 31-163); experiment: blocking ELISA: 0.5 ug/ml hIL-17F coated, antibody titrated, then 10 ug/ml hIL17RA-mIgG2aFc (blocked ligand partner); OD450 falls from about 1.35 to a lower plateau of about 0.87
T2 construct: Commercial recombinant protein; also called hIL-17F
T2 sequence (looked up): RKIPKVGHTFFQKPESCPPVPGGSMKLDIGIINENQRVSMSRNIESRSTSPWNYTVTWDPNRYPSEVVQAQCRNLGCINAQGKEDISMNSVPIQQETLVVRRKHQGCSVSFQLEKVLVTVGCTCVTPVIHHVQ
Procedure: (§1) The effect of the anti-IL17A/F antibody (produced in Example 2) on the binding of IL-17A, IL-17F or IL17A/F to the IL-17 receptor was tested by ELISA. IL-17A, IL-17F or IL-17A/F was coated in 96 well plate with 50 μl/well protein solution (protein concentration was […]) at 4° C. overnight. The wells were blocked with 1% BSA in PBST (tween 0.05%) by 200 μl/well at room temperature for 1 hour. The wells were washed 3 times with PBST. The anti-IL17A/F antibody and isotype control antibody human IgG1 (Biolegend cat# 403102) were diluted by PBS from 30 μg/ml down to 0.0005 μg/ml ([…]). The antibodies were added into the corresponding wells (50 μl/well) and incubated at room temperature for 4 hours. The wells were washed 3 times with PBST. hIL17RA-mIgG2aFc (10 μg/ml, in-house production according to standard molecular biology technology, Carson S, Molecular Biology Techniques, 2012) were added into each well (50 μl/well) and incubated at room temperature for 1 hour. The wells were washed 3 times with PBST. Goat anti-human IgG-HRP (1:5000 in PBS, EASYBIO Cat# BE0102) were added into each well (50 μl/well) and incubated at room temperature for 30 min. The wells were washed 6 times with PBST. […] The plate was read at 450 nm and 570 nm.

[3] = biological target: T3, human IL-17A (human, UniProt Q16552 24-155); experiment: ELISA, human IL-17A coated at 2 µg/ml
T3 construct: Commercial recombinant protein; also called hIL-17A; CTLA-8
T3 sequence (looked up): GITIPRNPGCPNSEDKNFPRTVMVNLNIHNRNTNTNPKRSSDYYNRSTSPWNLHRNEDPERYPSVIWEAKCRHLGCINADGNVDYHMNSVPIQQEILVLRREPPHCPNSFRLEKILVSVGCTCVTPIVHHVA
Procedure: (§2) MaxiSorp 96-well plates (NUNC # 449824, www.thermofisher.com) were coated with 2 μg/ml human IL-17A (Cell Signaling #89285F, www.cellsignal.com), human IL-17F (Cell Signaling #8906LC, www.cellsignal.com), human IL-17B (Peprotech #200-28, www.peprotech.com), human IL-17C (R&D systems #1234-IL-025/CF, www.rndsystems.com), human IL-17D ((Peprotech #200-27, www.peprotech.com), human IL-17E (R&D systems #1258-IL-025/CF, www.rndsystems.com) in 1× PBS (50 μl/well) respectively. Plates were incubated at 4° C. overnight. Coating solution was removed and plates were washed once with 200 μl/well PBST (1× PBS with 0.05% tween-20). Then 200 μl/well blocking buffer (1× PBS with 0.05% tween-20, 3% BSA) was added and incubated at room temperature for 1 hour. Blocking buffer was removed and plates were washed three times with 200 μl/well PBST (1× PBS with 0.05% tween-20). The anti-IL17A/F antibody, hIgG VH1-1/VL5, was diluted to 10, 3.33, 1.11, 0.37, 0.123, 0.041, 0.0137, 0.0046, 0.0015, 0.00031, 0.000102, 0.000034 μg/ml by 1× PBS and added to the plates (50 μl/well). Plates were incubated at room temperature for 2 hours. Antibodies in the wells were removed and plates were washed three times with 200 μl/well PBST (1× PBS with 0.05% tween-20). […] Plates were read at 450 nm. […]

[4] = biological target: T3, human IL-17A; experiment: SPR (Biacore T200), antibody captured by anti-human Fc, IL-17 as analyte
Procedure: Anti-human Fc gamma specific antibody (Jackson Immuno Research, Lot no. 124448, Code. 109-008-098) was immobilized onto the sensor chip using amine coupling method. Four antibodies secreted to the culture medium plus the parental antibody were injected and captured by anti-human Fc antibody via Fc (capture phase) individually. After equilibration, IL-17 was injected for 300 seconds (association phase) followed by the injection of running buffer for 1200s (dissociation phase). Responses of reference flow cell (flow cell 1) were subtracted from those of humanized antibodies flow cells during each cycle. The surface was regenerated before the injection of another humanized antibody. The process was repeated until all antibodies are analyzed. The off-rates of humanized antibodies were obtained from fitting the experimental data locally to 1:1 interaction model using the Biacore T200 evaluation software. The antibodies were ranked by their dissociation rate constants (off-rates, Kd). The binders that interact with IL-17 with similar affinity to parental antibody were selected.

[5] = biological target: T4, IL-17A/F heterodimer (UniProt Q16552 24-155; Q96PD4 31-163, limits assumed); experiment: blocking ELISA: 0.5 ug/ml hIL-17A/F heterodimer coated, antibody titrated, then 10 ug/ml hIL17RA-mIgG2aFc (blocked ligand partner); OD450 falls from about 1.9 to a lower plateau of about 0.6
T4 construct: Commercial heterodimer
T4 sequence (looked up) 1: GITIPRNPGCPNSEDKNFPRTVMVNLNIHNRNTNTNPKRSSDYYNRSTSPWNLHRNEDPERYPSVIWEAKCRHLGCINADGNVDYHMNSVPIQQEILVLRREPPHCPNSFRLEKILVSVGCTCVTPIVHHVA
T4 sequence (looked up) 2: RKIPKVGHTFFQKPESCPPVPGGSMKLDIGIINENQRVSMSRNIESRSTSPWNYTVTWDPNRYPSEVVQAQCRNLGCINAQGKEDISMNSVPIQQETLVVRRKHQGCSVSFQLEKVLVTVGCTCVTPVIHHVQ
Procedure: as §1

[6] = biological target: T5, cynomolgus IL-17A (cynomolgus, UniProt A0A2K5TTB0 24-155); experiment: ELISA, cynomolgus IL-17A coated at 2 µg/ml
T5 sequence: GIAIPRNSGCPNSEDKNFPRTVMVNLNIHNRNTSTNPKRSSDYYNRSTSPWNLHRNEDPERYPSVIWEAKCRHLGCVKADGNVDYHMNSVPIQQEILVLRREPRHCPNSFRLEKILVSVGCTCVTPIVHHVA
Procedure: (§3) Human IgG1 (hIgG1) was used as a control antibody. EC50 values were calculated by GraphPad Prism.
(§4) The binding of anti-IL-17A/F antibody to cynomolgus IL-17A and IL-17F was determined by ELISA. Assay was performed in the same method of Example 7, except that cynomolgus IL-17A (Gene ID: XM 005552759.2, in-house production according to standard molecular biology method, Carson S, Molecular Biology Techniques, 2012) and IL-17F (Gene ID: XM_005552757.2, in-house production according to standard molecular biology method, Carson S, Molecular Biology Techniques, 2012) were used to replace human IL-17A and F, respectively.

[7] = biological target: T2, human IL-17F; experiment: ELISA, human IL-17F coated at 2 µg/ml
Procedure: as §2

[8] = biological target: T6, cynomolgus IL-17F (cynomolgus, UniProt G7P4V0 31-163); experiment: ELISA, cynomolgus IL-17F coated at 2 µg/ml
T6 construct: also called cynomolgus 17F
T6 sequence: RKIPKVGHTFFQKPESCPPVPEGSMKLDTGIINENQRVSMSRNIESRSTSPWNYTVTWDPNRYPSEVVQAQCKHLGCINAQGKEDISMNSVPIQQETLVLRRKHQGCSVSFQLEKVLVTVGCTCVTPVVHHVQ
Procedure: as §3, §4

B1: anti-IL17A/F antibody hIgG VH1-1/VL5 (antibody, V domains shown)
VH: QFQLVQSGAEVKKPGASVKVSCKASGYTFTDYNLNWVRQAPGKGLEWMGVIHPDYGTTSYNQKFKDRVTMTVDTSTSTVYMELSSLRSEDTAVYYCVRYDYGDAMDYWGQGTLVTVSS
VL: DIVMTQSPLSLSVTPGQPASISCRSSQSLVHSNGNTYLHWYLQKPGQPPQLLIYKVSNRFSGVPDRFSGSGSGTDFTLKISRVEAEDVGVYYCSQSTHVPLTFGQGTKLEIKR
notes: also called VH1-1/VL5 mAb; hIgGc VH1-1/VL5
In the case of B1, the binding result [1] is reported as “no binding”, the IC50 [2] is reported as 0.67 nM and the EC50 [3] is reported as 0.046 nM. It also gave a Kd [4] of 0.29 nM, a koff [4] of 0.00059 s⁻¹ and a kon [4] of 2e+06 M⁻¹ s⁻¹. For the same binder, the IC50 [5] was 0.45 nM, the EC50 [6] was 0.06 nM and the EC50 [7] was 0.042 nM. For the same binder, the EC50 [8] was 0.18 nM.
